From the Immune Epitope Database (IEDB)

Legend:
HLA-B*40:02 = experiment: IEDB peptide-MHC binding, purified MHC/competitive/radioactivity; filed as Kd, often an IC50 or EC50 that approximates it; ≥ and ≤ were set here for values at or beyond the usual limits of such assays
HLA-B*18:01 = experiment: as above
HLA-B*45:01 = experiment: as above
HLA-B*44:02 = experiment: as above
HLA-B*44:03 = experiment: as above
HLA-B*40:01 = experiment: as above
HLA-B*15:03 = experiment: as above; conditions: source organism: Vaccinia virus WR
HLA-A*32:01 = experiment: as above; conditions: source organism: Vaccinia virus WR
HLA-A*31:01 = experiment: IEDB peptide-MHC binding, purified MHC/competitive/fluorescence; filed as Kd, often an IC50 or EC50 that approximates it; ≥ and ≤ were set here for values at or beyond the usual limits of such assays
HLA-A*03:01 [1] = experiment: as above; conditions: source organism: Desulfitobacterium hafniense DCB-2
HLA-A*11:01 [2] = experiment: IEDB peptide-MHC binding, purified MHC/direct/fluorescence; filed as Kd, often an IC50 or EC50 that approximates it; ≥ and ≤ were set here for values at or beyond the usual limits of such assays
HLA-A*03:01 [3] = experiment: as above; conditions: source organism: West Nile virus
HLA-A*11:01 [4] = experiment: IEDB peptide-MHC binding, purified MHC/competitive/fluorescence; ≥ and ≤ were set here for values at or beyond the usual limits of such assays; conditions: source organism: West Nile virus
[5] = source organism: SARS coronavirus Tor2
[6] = source organism: West Nile virus
[7] = source organism: Mammarenavirus guanaritoense
[8] = source organism: Mammarenavirus lassaense

Sequence MEKLKALVA has a Kd (HLA-B*40:02; [5]) of 176 nM, a Kd (HLA-B*18:01; [5]) of 5490 nM and a Kd (HLA-B*45:01; [5]) of 24.1 nM. The Kd (HLA-B*44:02; [5]) was 568 nM, the Kd (HLA-B*44:03; [5]) was 277 nM and the Kd (HLA-B*40:01; [5]) was 152 nM.

In the case of ILFYFANGI, the Kd (HLA-B*15:03) is reported as 139 nM and the Kd (HLA-A*32:01) is reported as 92.5 nM.

For ANVNARNRF, the Kd (HLA-B*15:03) was 552 nM.

For ALFAGDLYR, the Kd (HLA-A*31:01; source organism: Desulfitobacterium hafniense DCB-2) was 3.9 nM and the Kd (HLA-A*03:01 [1]) was 12.9 nM.

KTHESHLVR was tested, and the Kd (HLA-A*11:01 [2]; source organism: Yellow fever virus 17D) was 35.6 nM and the Kd (HLA-A*31:01; source organism: Yellow fever virus) was 21.2 nM.

With NEYTGNYQCG the Kd (HLA-B*40:02; [5]) was no less than 28500 nM, the Kd (HLA-B*18:01; [5]) was no less than 33400 nM and the Kd (HLA-B*45:01; [5]) was 1790 nM. The Kd (HLA-B*44:02; [5]) was no less than 70200 nM, the Kd (HLA-B*44:03; [5]) was 7520 nM and the Kd (HLA-B*40:01; [5]) was no less than 69600 nM.

In the case of KSYETEYPK, the Kd (HLA-A*03:01 [3]) is reported as 728 nM, the Kd (HLA-A*11:01 [2]; [6]) is reported as 7.7 nM and the Kd (HLA-A*31:01; [6]) is reported as 126 nM. It also gave an IC50 (HLA-A*11:01 [4]) of 7880 nM.

Sequence GEQVDLGPVL has a Kd (HLA-B*40:02; [7]) of 52.6 nM, a Kd (HLA-B*18:01; [7]) of 12100 nM and a Kd (HLA-B*45:01; [7]) of 1900 nM. The Kd (HLA-B*44:02; [7]) was no less than 32700 nM, the Kd (HLA-B*44:03; [7]) was no less than 43500 nM and the Kd (HLA-B*40:01; [7]) was 9030 nM.

With PDYKRPGVS the Kd (HLA-B*40:02; [8]) was 17600 nM, the Kd (HLA-B*18:01; [8]) was no less than 77500 nM and the Kd (HLA-B*45:01; [8]) was no less than 77700 nM. For the same sequence, the Kd (HLA-B*44:02; [8]) was no less than 77900 nM, the Kd (HLA-B*44:03; [8]) was no less than 54300 nM and the Kd (HLA-B*40:01; [8]) was no less than 33800 nM.
